B1: TPR t1 (parent)
chain: GACCAAUCUGCCCUCAGAGCUCGAGAACAUCUUCGGAUGCAGAGGAGGCAGGCUUCGGUGGCGCGAUAGCGCCAACGUCCUCAACCUCCAAUGCAUCCCACCACAUGAUGAUGCCUGAAGAGCCUUGGUUUUUUG

Variants of: B1
Experiment: polymerase ribozyme fitness, log enrichment relative to wild type (log ratio); higher = more active; in vitro selection for triplet polymerase activity
In short: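 For each subunit of a heterodimeric triplet polymerase ribozyme, a mutant library was built by PCR and transcribed, then taken through a single in vitro selection round in triplicate. Selection involved annealing to a biotinylated primer, the partner subunit and triplets, incubation frozen at −7 °C, gel excision of extended constructs, capture on streptavidin beads and RT-PCR. Genotypes were retained after Illumina sequencing of inputs and outputs only with ≥10 input reads and ≥1 read in each output. Fitness is defined as the logarithm of a genotype's enrichment relative to wild-type enrichment, using inverse-variance-weighted averages across replicates, with the logarithm taken to base 2.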

Variant | polymerase ribozyme fitness (log ratio)
GACCAAUCUGCCCUCAGAGCUCGAGAACAUCUUCGGAUGCAGAGGAGGCAGGCUUCGGUCGCGCGAUAGCGCCAACGUCCUCAAACUCCAAUGCAUCCCACCACAUGAUGAUGCCUGAAGAGCCUUGGUUUUUUG [G60C C85A] | -0.933
GACCAAUCUGCCCUCAGAGCUCGAGAACAUCUUCGGAUGCAGAGGAGGCAGGCUUCGGUAGCGCGAUAGCGCCAACGUCCACAACCUCCAAUGCAUCCCACCACAUGAUGAUGCCUGAAGAGCCUUGGUUUUUUG [G60A U81A] | -1.44
GACCAAUCUGCCCUCAGAGCUCGAGAACAUCUUCGGAUGCAGAGGAGGCAGGCUUCGGUCGCGCGAUAGCGCCAACGUCCUCAAUCUCCAAUGCAACCCACCACACGAUGAUGCCUGAUGAGCCUUGGUUUUUUG [G60C C85U U96A U106C A119U] | -4.09
GACCAAUCUGCCCUCAGAGCUCGAGAACAUCUUCGGAUGCAGAGGAGGCAGGCUUCGGUAGCGCGAUAGCGCCAACGUCCUCAACCUCCAAUGCAUCCCACCACAAGAUGAUGCCUGAAGAGCCUUGGUUUUUUG [G60A U106A] | -0.15
GACCAAUCUGCCCUCAGAGCUCGAGAACAUCUUCGGAUGCAGAGGAGGCAGGCUUCGGUAGCGCGAUAGCGCCAACGUCCUCAACCUCCAAUGCAUCCCACCACAGGAUGAUGCCUGAAGAGCCUUGGUUUUUUG [G60A U106G] | -0.897
GACCAAUCUGCCCUCAGAGCUCGAGAACAUCUUCGGAUGCAGAGGAGGCAGGCUUCGGUAGCGCGAUAGCGCCAACGUCCUCAACCUCCAAUGCAUCCCACCACAUGAUGAAGCCUGAAGAGCCUUGGUUUUUUG [G60A U112A] | 1.13
GACCAAUCUGCCCUCAGAGCUCGAGAACAUCUUCGGAUGCAGAGGAGGCAGGCUUCGGUCGCGCGAUAGCGCCAACGUCCUCAACAUCCAAUGCAUCCCACCACAUGAUGAUGCCUCAAGAGUCUUGGUUUUUUG [G60C C86A G117C C123U] | -6.38
GACCAAUCUGCCCUCAGAGCUCGAGAACAUCUUCGGAUGCAGAGGAGGCAGGCUUCGGUCGCGCGAUAGCGCCAACGUGCUCAACCUCCAAUGCAUCCCACCACAUGAUGAUGCCUGAAGAACCUUGGUUUUUUG [G60C C79G G122A] | -2.36
GACCAAUCUGCCCUCAGAGCUCGAGAACAUCUUCGGAUGCAGAGGAGGCAGGCUUCGGUCGCGCGAUAGCGCCAACGUCCUCAUCCUCCAAUGCAUCCCACCACAUGAUGAUGCCCGAAGAGCCUUGGUUUUUUG [G60C A84U U116C] | -0.854
GACCAAUCUGCCCUCAGAGCUCGAGAACAUCUUCGGAUGCAGAGGAGGCAGGCUUCGGUCGCGCGAUAGCGCCAACGUCCUCAACCUCCAAUGCAUCCCACCACAUGAUGUUGCCCGAAGAGCCUUGGUUUUUUG [G60C A111U U116C] | -5.57
GACCAAUCUGCCCUCAGAGCUCGAGAACAUCUUCGGAUGCAGAGGAGGCAGGCUUCGGUCGCGCGAUAGCGCCAAUGUCCUCAACCUCCAAUGCAUCCCACCACAUGAUGAUGCCUGAAGAGCCUUGGUUUUUUG [G60C C76U] | -3.93
GACCAAUCUGCCCUCAGAGCUCGAGAACAUCUUCGGAUGCAGAGGAGGCAGGCUUCGGUAGCGCGAUAGCGCCAACGUCCUCAACCUCCAAUGCAUCCCACCACAUGAUGAGGCCUGAAAAGCCUUGGUUUUUUG [G60A U112G G120A] | -2.56
GACCAAUCUGCCCUCAGAGCUCGAGAACAUCUUCGGAUGCAGAGGAGGCAGGCUUCGGUAGCGCGAUAGCGCCAACGUCCGCAACCUCCAAUGCAUCCCACCACAUGAAGAUGCCUGAAGAGCAUUGGUUUUUUG [G60A U81G U109A C124A] | -7.74
GACCAAUCUGCCCUCAGAGCUCGAGAACAUCUUCGGAUGCAGAGGAGGCAGGCUUCGGUCGCGCGAUAGCGCCAACGUCCUCAACCUCCAAUGCGUCCCACCACAUGAUGAUGCCUGAAGAGCCUUGGUUUUUUG [G60C A95G] | 0.473
GACCAAUCUGCCCUCAGAGCUCGAGAACAUCUUCGGAUGCAGAGGAGGCAGGCUUCGGUCGCGCGGUAGCGCCAACGUCCUAAACCUCCAAUGCAUCCCACCACAUGAUGAUGCCUGAAGAGCCUUGGUUUUUUG [G60C A66G C82A] | -1.84
GACCAAUCUGCCCUCAGAGCUCGAGAACAUCUUCGGAUGCAGAGGAGGCAGGCUUCGGUCGCGCGAUAGCGCCAACGUCCUCAACCUCCAAUGCAUACCACCACAUGAUGAUGCCUGAAGAGCCUUGGUUUUUUG [G60C C97A] | -4.44
GACCAAUCUGCCCUCAGAGCUCGAGAACAUCUUCGGAUGCAGAGGAGGCAGGCUUCGGUCGCGCGAUAGCGCCAACGUCCUCACCCUCCAAUGCAUCCCACCACAUGAUGAUGCCUGAAGAGCCUUGGUUUUUUG [G60C A84C] | -0.975
GACCAAUCUGCCCUCAGAGCUCGAGAACAUCUUCGGAUGCAGAGGAGGCAGGCUUCGGUCGCGCGAUAGCGCCAACGUCCUAAACCUCCAAUGCAUCCCACCACGUGAUGAUGCCUGAAGAGCCUUGGUUAUUUG [G60C C82A A105G U131A] | -4.31
GACCAAUCUGCCCUCAGAGCUCGAGAACAUCUUCGGAUGCAGAGGAGGCAGGCUUCGGUCGCGCGAUAGCGCUAACGUCCUCAACCUCCAAUGCAUCCCACCACAUGAUGAUGCCUGAAGAGCCUUGGUGUUUUG [G60C C73U U130G] | -0.603
GACCAAUCUGCCCUCAGAGCUCGAGAACAUCUUCGGAUGCAGAGGAGGCAGGCUUCGGUCGCGCGAUAGCGCCAACGUCCUCGACCUCCAAUGCAUCCCACCACAUGAUGAUGCCUGAAGAGCCUUGGUUUUUUG [G60C A83G] | -1.24
GACCAAUCUGCCCUCAGAGCUCGAGAACAUCUUCGGAUGCAGAGGAGGCAGGCUUCGGUCGCGCGAUAGCGCCAACGUCCUCCACCUCCAAUGCAUCCCACCACAUGAUGAUGCCUGAAGAGCCUUGGUUUUUUG [G60C A83C] | -0.586

From the RNAGym collection of RNA variant scans (doi:10.1073/pnas.2313332121)
